This is an account of results in patent US20110262445A1.

The assay addresses human IL-12, IL-23, IL-12p40. Description: SPR.

B1: Antibody 1 (antibody, human IgG1, kappa, V domains shown)
VH: EVQLQQSGADLVRSGASIKLSCTASGFNIKDYYMHWVKQRPEQGLEWIGWIDPENGDTEYAPKFQGKATMTADTSSNTAYLQLSSLTSEDTAVYYCNACKELRYFDVWGAGTTVTVSS
VL: DIVLTQSPATLSVTPGDSVSLSCRASQSISINLHWYQQKSHESPRLLIKFASQSISGIPSRFSGYGSGTDFTLSINSVETEDFGRYFCQQSNSWPLTFGAGTKLELKR
For B1, the Kd lay in the range of 40 to 70 pM.
